Data as given in publication PMC9279507.
Changes are numbered by the printed parent chain. In names and notes the source's numbering stands.

T1: 6XHis-tagged TgIST-R2 (G365-S420)
T1 chain: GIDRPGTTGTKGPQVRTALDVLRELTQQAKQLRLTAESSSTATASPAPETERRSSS

B1: STAT1cc (STAT1 core fragment, A656C and N658C, locked dimer), tag-free, P42224 M654A (protein)
chain: STVMLDKQKELDSKVRNVKDKVMCIEHEIKSLEDLQDEYDFKCKTLQNREHETNGVAKSDQKQEQLLLKKMYLMLDNKRKEVVHKIIELLNVTELTQNALINDELVEWKRRQQSACIGGPPNACLDQLQNWFTIVAESLQQVRQQLKKLEELEQKYTYEHDPITKNKQVLWDRTFSLFQQLIQSSFVVERQPCMPTHPQRPLVLKTGVQFTVKLRLLVKLQELNYNLKVKVLFDKDVNERNTVKGFRKFNILGTHTKVMNMEESTNGSLAAEFRHLQLKEQKNAGTRTNEGPLIVTEELHSLSFETQLCQPGLVIDLETTSLPVVVISNVSQLPSGWASILWYNMLVAEPRNLSFFLTPPCARWAQLSEVLSWQFSSVTKRGLNVDQLNMLGEKLLGPNASPDGLIPWTRFCKENINDKNFPFWLWIESILELIKKHLLPLWNDGCIMGFISKERERALLKDQQPGTFLLRFSESSREGAITFTWVERSQNGGEPDFHAVEPYTKKELSAVTFPDIIRNYKVAACECIPENPLKYLYPNIDKDHAFGKYYSRPKEAPEPMELDGPKGTGYIKTELISVSEVH
B2: STAT1cc (STAT1 core fragment, A656C and N658C, locked dimer), tag-free, P42224 D627A (protein)
chain: B1 chain with D496A, A523M
B3: STAT1cc (STAT1 core fragment, A656C and N658C, locked dimer), tag-free, P42224 E618A (protein)
chain: MSQWYELQQLDSKFLEQVHQLYDDSFPMEIRQYLAQWLEKQDWEHAANDVSFATIRFHDLLSQLDDQYSRFSLENNFLLQHNIRKSKRNLQDNFQEDPIQMSMIIYSCLKEERKILENAQRFNQAQSGNIQSTVMLDKQKELDSKVRNVKDKVMCIEHEIKSLEDLQDEYDFKCKTLQNREHETNGVAKSDQKQEQLLLKKMYLMLDNKRKEVVHKIIELLNVTELTQNALINDELVEWKRRQQSACIGGPPNACLDQLQNWFTIVAESLQQVRQQLKKLEELEQKYTYEHDPITKNKQVLWDRTFSLFQQLIQSSFVVERQPCMPTHPQRPLVLKTGVQFTVKLRLLVKLQELNYNLKVKVLFDKDVNERNTVKGFRKFNILGTHTKVMNMEESTNGSLAAEFRHLQLKEQKNAGTRTNEGPLIVTEELHSLSFETQLCQPGLVIDLETTSLPVVVISNVSQLPSGWASILWYNMLVAEPRNLSFFLTPPCARWAQLSEVLSWQFSSVTKRGLNVDQLNMLGEKLLGPNASPDGLIPWTRFCKENINDKNFPFWLWIESILELIKKHLLPLWNDGCIMGFISKERERALLKDQQPGTFLLRFSESSREGAITFTWVARSQNGGEPDFHAVEPYTKKELSAVTFPDIIRNYKVMAAENIPENPLKYLYPNIDKDHAFGKYYSRPKEAPEPMELDGPKGTGYIKTELISVSEVHPSRLQTTDNLLPMSPEEFDEVSRIVGSVEFDSMMNTV
B4: STAT1cc (STAT1 core fragment, A656C and N658C, locked dimer), tag-free, P42224 K652A (protein)
chain: B3 chain with A618E, K652A
B5: STAT1cc (STAT1 core fragment, A656C and N658C, locked dimer), tag-free, P42224 D672A (protein)
chain: B3 chain with A618E, D672A
B6: STAT1cc (STAT1 core fragment, A656C and N658C, locked dimer), tag-free, P42224 E625A (protein)
chain: B3 chain with A618E, E625A
B7: STAT1cc (STAT1 core fragment, A656C and N658C, locked dimer), tag-free, P42224 N662K (protein)
chain: B3 chain with A618E, N662K
B8: STAT1cc (STAT1 core fragment, A656C and N658C, locked dimer), tag-free, P42224 Q594A (protein)
chain: B3 chain with Q594A, A618E
B9: STAT1cc (STAT1 core fragment, A656C and N658C, locked dimer), tag-free, P42224 Q621W (protein)
chain: B3 chain with A618E, Q621W
B10: STAT1cc (STAT1 core fragment, A656C and N658C, locked dimer), tag-free, P42224 S620A (protein)
chain: B3 chain with A618E, S620A
B11: STAT1cc (STAT1 core fragment, A656C and N658C, locked dimer), tag-free, P42224 D674A (protein)
chain: B3 chain with A618E, D674A
B12: STAT1cc (STAT1 core fragment, A656C and N658C, locked dimer), tag-free, P42224 E632A (protein)
chain: B3 chain with A618E, E632A
B13: STAT1cc (STAT1 core fragment, A656C and N658C, locked dimer), tag-free, P42224 Q621A (protein)
chain: B3 chain with A618E, Q621A
B14: STAT1cc (STAT1 core fragment, A656C and N658C, locked dimer), tag-free, P42224 R619A (protein)
chain: B3 chain with A618E, R619A
B15: STAT1cc (STAT1 core fragment, A656C and N658C, locked dimer), tag-free, P42224 D593A (protein)
chain: B3 chain with D593A, A618E

Target: T1, 6XHis-tagged TgIST-R2 (G365-S420)
Experiment: nickel affinity copurification, SDS-PAGE, Coomassie blue band quantification
Settings: chain shown with the change;; parent: est. 1.0; read off a plot

Binder	ratio to parent
B1	0.04
B2	0.04
B3	0.82
B4	0.4
B5	0.93
B6	0.75
B7	0.26
B8	0.79
B9	1.1
B10	0.8
B11	0.9
B12	0.57
B13	0.87
B14	0.62
B15	0.9
